Measurements: the supplement of paper PMC10899765

Tests used:
Conditions in all cases: 20 nM; 72 h
MCF10A [1] = test: percent viability (nuclei count relative to siNT); higher = more viable cells
Description: (§1)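 After 72 h, cells were fixed and stained with Hoechst and anti-fibrillarin, and nucleoli per nucleus were counted with CellProfiler. Values are plate-adjusted percent effect for the one-nucleolus and 5+ nucleoli phenotypes, normalised to siNT (0%) and to the positive controls siNOL11 or siKIF11 (100%), as the mean of biological triplicates. Percent viability is the nuclei count relative to siNT.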

MCF10A [2] = test: 5+ nucleoli phenotype percent effect (relative to siNT 0% and siKIF11 100%); higher = more cells with five or more nucleoli
Description: as §1

MCF10A [3] = test: one-nucleolus phenotype percent effect (relative to siNT 0% and siNOL11 100%); higher = more cells with one nucleolus (ribosome biogenesis inhibition)
Description: as §1

Sequence | percent viability (MCF10A [1]) [%] | 5+ nucleoli phenotype percent effect (MCF10A [2]) [%] | one-nucleolus phenotype percent effect (MCF10A [3]) [%]
CGCCUCUUCAGCGCUGUCUUCC [hsa-miR-2682-3p] | 75.9 | 24 | -7.1
CGGGGUCGGCGGCGACGUG [hsa-miR-7704] | 38.3 | 9.03 | -0.45
GGCUGGUCAGAUGGGAGUG [hsa-miR-6131] | 71 | 1.34 | -3.05
UGAUGGAUAAAAGACUACAUAUU [hsa-miR-3134] | 27.6 | -19.7 | 23.3
CAGGAAGGAGACAGGCAGUUCA [hsa-miR-6876-5p] | 21.8 | -24.5 | 10.4
UUGCUAGUUGCACUCCUCUCUGU [hsa-miR-449c-3p] | 27.2 | -15.1 | 7.23
UCCUGUCUUUCCUUGUUGGAGC [hsa-miR-5699] | 186 | 51.3 | -26.2
CCCUGGGCCUCUGCUCCCCAG [hsa-miR-939-3p] | 31.6 | -13 | 17.1
AUUAGGUAGUGGCAGUGGAAC [hsa-miR-6509-5p] | 55.7 | 6.73 | -17.9
CUUGAGUCGUGCCUUUCUGAAUG [hsa-miR-8081] | 95.5 | -17.9 | 14
GACUCACUCACAGGAUUGUGCA [hsa-miR-3680-5p] | 58.9 | 39.7 | -12
ACUGGACUUGGAGUCAGAAGG [hsa-miR-378a-3p] | 45.2 | 22.6 | 2.26
AGGACUGGACUCCCGGCAGCCC [hsa-miR-4515] | 37.2 | -14.9 | 15.9
GGUCCAGAGGGGAGAUAGGUUC [hsa-miR-198] | 51.6 | 5.19 | -9.26
GCUUGUCGCUGCGGUGUUGCU [hsa-miR-3655] | 65.9 | -7.75 | 29.1
UUGCAUAGUCACAAAAGUGAUC [hsa-miR-153] | 116 | 83 | -31.1
AGCACACUGAGCGAGCGGAC [hsa-miR-8064] | 44.2 | -14.8 | -0.792
GUGCAUGGCUGUAUAUAUAACA [hsa-miR-5011-3p] | 56.9 | 19.5 | 0.75
ACUGGCAGAACACUGAAGCAGC [hsa-miR-6868-5p] | 26.9 | -21.7 | 34.1
GAGCCCCUCUCUGCUCUCCAG [hsa-miR-6769a-3p] | 92.9 | 9.99 | -15.3
UCACCUGACCUCCCAUGCCUGU [hsa-miR-3622a-3p] | 103 | 33.1 | -15.8
UCACUACCUGACAAUACAGU [hsa-miR-4999-3p] | 52.7 | 0.698 | -25.2
AUGAGACUCAUGUAAAACAUCUU [hsa-miR-3672] | 52.6 | -24.8 | 34.3
AAGGUAUUGUUCAGACUUAUGA [hsa-miR-4678] | 38.9 | -18 | 5.33
UUUCCCUUUCCAUCCUGGCAG [hsa-miR-5006-3p] | 31.7 | 18.5 | 4.84
CGUGGAGGACGAGGAGGAGGC [hsa-miR-7847-3p] | 67.5 | -7.84 | 4.16
AUAGCAGCAUGAACCUGUCUCA [hsa-miR-4524a-5p] | 24.9 | -12.6 | 21.6
AUAUACAGGGGGAGACUCUUAU [hsa-miR-1185-1-3p] | 20.3 | -12.6 | 9.76
UUGGGAUGGUAGGACCAGAGGGG [hsa-miR-6728-5p] | 50.3 | 24.3 | -15.8
AAAAGUAAUUGCGGUCUUU [hsa-miR-548ap-5p] | 121 | 39.1 | -19
